Assay results: patent US20230109998A1, “MALARIA TRANSMISSION-BLOCKING VACCINES” (PATH, priority 2020, published 2023)

Assays:
[1] = system: P. falciparum NF54 line; assay: Rat immunization, ELISA of antiserum and standard membrane feeding assay (SMFA) of purified IgG; type: in vivo, Plasmodium falciparum; details: SD rats i.m., 20 μg antigen with composition of Example 6 as adjuvant; 250 ug/mL total IgG with complement in SMFA
Method: SD rats (Charles River Laboratories Japan) were immunized intramuscularly (i.m.) in the thigh muscles of the hind limb with 50 μL of a vaccine formulation consisting of 20 μg of an antigen, tagged Pfs230D1+ or non-tagged Pfs230D1+, and 8110 μg of the composition of Example 6 as an adjuvant (which corresponded to 10 μg of Compound A); 20 μg of tagged Pfs230D1+ alone for FIG. 2 or 20 μg of tagged Pfs230D1+ and 8110 μg of the composition of Example 6 for FIG. 5; or 8110 μg of the composition of Example 6 alone as a control. Rats received two or three injections on day 0 and 21 or day 0, 21, and 42. On day 42 or 56, rats were sacrificed, and blood was collected. After collection of the whole blood, the blood allowed to clot by leaving it undisturbed at room temperature for 4 hours. The clot was removed by centrifuging at 2,000×g for 10 minutes in a refrigerated centrifuge.
For the sera on day 42 or 56, the antibody levels against corresponding proteins were determined individually by ELISA (FIG. 2a for tagged Pfs230D1+, FIG. 5a for non-tagged Pfs230D1+).
For each group, an equal amount of serum from each rat was pooled regardless of ELISA units. […]
The standardized methodology for performing the SMFA is known in the art. […] Only midguts from mosquitoes with any eggs in their ovaries at the time of dissection were analysed (FIG. 2b for tagged Pfs230D1+, FIG. 5b for non-tagged Pfs230D1+). […]

[2] = system: anti-Pfs230 human monoclonal antibodies; assay: Western blotting of purified Pfs230D1+ with anti-Pfs230 human monoclonal antibodies; type: binding; details: Western blot, 10 μg/mL antibody, 20 ng protein per lane, non-reducing conditions
Method: Samples were diluted with 4×LDS (Lithium dodecyl sulfate, Invitrogen) sample buffer, heated for 5 min at 90° C. and loaded in a final volume of 20 μL/well on SDS-PAGE gels (4-12% NuPAGE Bis-Tris, Invitrogen). Gels were run at 150-200 V for 35-50 min in 1×2-(N-morpholino) ethanesulfonic acid (MES) sodium dodecyl sulfate (SDS) running buffer and stained with SimplyBlue™ SafeStain (Invitrogen).
Following SDS-PAGE, proteins were transferred onto nitrocellulose membrane and Western blot procedure using anti-Pfs230 human monoclonal antibodies (non patent related). The human monoclonal antibodies were tested for reactivity at 10 μg/mL to 20 ng of Pfs230D1+(non-tagged or tagged) loaded per lane. A secondary goat anti-human antibody was used at 1/2000 dilution followed by development with BCIP/NBT substrate.

Molecule | induction of functional antibodies (ELISA units, transmission reducing activity in SMFA) [1] | reactivity to anti-Pfs230 monoclonal antibodies [2] | reactivity to anti-Pfs230 monoclonal antibodies ([2]; listed as Pfs230D1+ containing histidine-tag) | reactivity to anti-Pfs230 monoclonal antibodies ([2]; listed as Non-tagged Pfs230D1+)
tagged Pfs230D1+: N-terminal Pfs230 fragment (aa 552-731, N585Q) with C-terminal six histidine tag, SEQ ID NO: 2 (protein, C-terminal His6 tag; Pfs230D1+) DVGVDELDKIDLSYETTESGDTAVSEDSYDKYASQNTNKEYVCDFTDQLKPTESGPKVKKCEVKVNEPLIKVKIICPLKGSVEKLYDNIEYVPKKSPYVVLTKEETKLKEKLLSKLIYGLLISPTVNEKENNFKEGVIEFTLPPVVHKATVFYFICDNSKTEDDNKKGNRGIVEVYVEPYGHHHHHH | induced functional antibodies in rats | reacted under non-reducing conditions | reacted to two conformational dependent anti-Pfs230 monoclonal antibodies | –
non-tagged Pfs230D1+: N-terminal Pfs230 fragment (aa 552-731, N585Q) without C-terminal tag, SEQ ID NO: 1 (protein, Pfs230D1+) DVGVDELDKIDLSYETTESGDTAVSEDSYDKYASQNTNKEYVCDFTDQLKPTESGPKVKKCEVKVNEPLIKVKIICPLKGSVEKLYDNIEYVPKKSPYVVLTKEETKLKEKLLSKLIYGLLISPTVNEKENNFKEGVIEFTLPPVVHKATVFYFICDNSKTEDDNKKGNRGIVEVYVEPYG | induced functional antibodies in rats | reacted under non-reducing conditions | – | reacted to two conformational dependent anti-Pfs230 monoclonal antibodies
